According to patent publication US20230391872A1 (ANAPTYSBIO, published 2023):

What was measured:
[1] = molecular target: cynomolgus monkey BTLA on cells (stably transfected 293c18 clone 1G5; cynomolgus peripheral blood T and B cells) (cynomolgus monkey); assay: flow cytometry dot plot, CD3 (PerCP Cy5.5) against BTLA (APC), lysed cynomolgus monkey whole blood, antibody at 33 nM
[2] = molecular target: human BTLA on cells (stably transfected 293c18 cells; human peripheral blood T and B cells) (human) (UniProt Q7Z6A9); assay: flow cytometry (MFI) on gated CD4+ T cells of human PBMC, APC-labelled antibody [left panel (Naive CD4+ T cells]
[3] = molecular target: human BTLA on cells (stably transfected 293c18 cells; human peripheral blood T and B cells) (human) (UniProt Q7Z6A9); assay: flow cytometry (MFI) on gated CD8+ T cells of human PBMC, APC-labelled antibody [middle panel (Naive CD8+ T cells]
[4] = molecular target: T1, purified recombinant BTLA-ECD (Example 19)
T1 sequence (Q7Z6A9 31-157, species assumed, looked up): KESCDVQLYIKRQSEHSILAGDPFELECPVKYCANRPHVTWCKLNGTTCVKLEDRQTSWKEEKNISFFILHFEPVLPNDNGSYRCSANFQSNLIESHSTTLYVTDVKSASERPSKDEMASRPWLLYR

[5] = molecular target: T2, recombinant human BTLA monomer, hBTLA amino acids 31-155 followed by a 6-his tag (human, UniProt Q7Z6A9 31-155); assay: hydrogen-deuterium exchange with recombinant human BTLA monomer
T2 construct: Antigen of the hydrogen-deuterium exchange experiments
T2 sequence: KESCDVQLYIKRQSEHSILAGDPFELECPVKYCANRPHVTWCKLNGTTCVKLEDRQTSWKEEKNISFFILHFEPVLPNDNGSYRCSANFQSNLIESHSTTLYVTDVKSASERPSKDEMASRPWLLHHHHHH
Protocol: Hydrogen-deuterium exchange mapping of the peptides on BTLA bound by the 6G3 and 10D8 antibodies disclosed herein was performed using recombinant human BTLA monomer. […] FIGS. 7A, 7B, and 7C show a ribbon model of the crystal structure of human BTLA extracellular domain (black) in complex with a space-filling model of the crystal structure of human HVEM extracellular binding domain (light gray) rendered in PyMOL from Protein Data Bank structure (Compaan et al., J. Biol Chem 280: 39553-39561 (2005)). FIG. 7A summarizes a hydrogen-deuterium exchange experiment using the 6G3 antibody (APE12839.05 (H Chain SEQ ID NO: 144, L Chain SEQ ID NO: 174)), FIG. 7B summarizes a hydrogen-deuterium exchange experiment using the 10D8 antibody (APE11482.06), and FIG. 7C summarizes a hydrogen-deuterium exchange experiment using a reference BTLA antagonist antibody (APE10693.17). For each experiment, the BTLA/antibody mixture or BTLA alone was deuterium labeled for 4, 10, or 60 minutes in order to see the exchange kinetics. After incubation, the BTLA protein was subjected to rapid enzymatic proteolysis at acidic pH and the incorporation of deuterium into resulting peptides quantified by liquid chromatography-mass spectrometry.

[6] = molecular target: T3, human BTLA ECD-his (monomeric human BTLA-his) (human, UniProt Q7Z6A9 31-157); assay: SPR (Biacore T200), antibody captured on anti-human IgG chip, monomeric BTLA-his flowed at 60, 20, 6.7 and 2.2 nM, 1:1 binding model, 25 C [upper left panel (Hu BTLA]
T3 construct: extracellular domain; also called human BTLA extracellular domain
T3 sequence (looked up): T1 sequence (Q7Z6A9 31-157, species assumed, looked up)
Protocol: (§1) Surface plasmon resonance (SPR) analyses were carried out using a Biacore T200 (GE Healthcare Life Sciences). Kinetic constants were determined using a 1:1 binding model in the Biacore T200 Evaluation Software to calculate on- and off-rates (kₐ and kd, respectively), and dissociation constants as a measure of overall affinity (KD). Anti-human IgG (GE Healthcare Life Sciences) was immobilized on a CMS chip using EDC-activated amine coupling chemistry (420 seconds contact at a flow rate of 10 μl/min). Antibodies (APE10585.04 6G3 IgG1 and APE10840.05 6G3 IgG4), each at 0.5 μg/m1) were captured in a 60 second contact with the flow cell using a flow rate of 10 μl/min. Monomeric human BTLA-his or cynomolgus monkey BTLA-his at 60 nM, 20 nM, 6.7 nM and 2.2 nM concentrations was flowed over captured antibody (480 seconds association, 1800 seconds dissociation). Runs were at 25° C. and used buffer containing 10 mM HEPES, pH 7.6, 150 mM NaCl, 3 mM EDTA, 0.05% polysorbate 20 (HBS-EP+, pH 7.6; Teknova) for the mobile phase and all dilutions. At the end of each cycle, bound antigen was removed by regeneration with two successive exposures (60 seconds and 90 seconds) to 3 M MgCl2 (30 μl/min). Sensorgrams and binding constants corresponding to the experiment are shown in FIG. 1 (human BTLA) and FIG. 1 (cynomolgus monkey BTLA). Antibody capture levels in resonance units (RU) are listed at the right side of each panel.

[7] = molecular target: T3, human BTLA ECD-his (monomeric human …); assay: SPR, Biacore T200, antibody captured on anti-human IgG, monomeric human BTLA-his as analyte, 25 °C, 1:1 model; 6G3 IgG1 (APE10585.04) captured on the chip; human BTLA-his analyte
Protocol: as §1, with “Antibody capture levels in resonance units (RU) are listed at the right side of each panel.” left out

[8] = molecular target: T4, cynomolgus monkey BTLA ECD-his (monomeric cynomolgus monkey BTLA-his) (cynomolgus monkey, UniProt A0A2K5W7M7 31-157); assay: SPR (Biacore T200), antibody captured on anti-human IgG chip, monomeric BTLA-his flowed at 60, 20, 6.7 and 2.2 nM, 1:1 binding model, 25 C [lower left panel (Cyno BTLA]
T4 construct: extracellular domain; also called cynomolgus monkey BTLA extracellular domain
T4 sequence: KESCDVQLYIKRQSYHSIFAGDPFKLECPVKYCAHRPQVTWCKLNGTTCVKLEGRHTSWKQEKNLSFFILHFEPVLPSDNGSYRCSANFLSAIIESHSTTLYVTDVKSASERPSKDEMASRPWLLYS
Protocol: as §1

[9] = molecular target: T4, cynomolgus monkey BTLA ECD-his …; assay: SPR, Biacore T200, antibody captured on anti-human IgG, monomeric cynomolgus monkey BTLA-his as analyte, 25 °C, 1:1 model; 6G3 IgG1 (APE10585.04) captured on the chip; cynomolgus BTLA-his analyte
Protocol: as §1, with “Antibody capture levels in resonance units (RU) are listed at the right side of each panel.” left out

**Q.** What does the source list for “APC-Mouse Anti-Human CD272 (BTLA) reference antibody, clone J168-540 (BD Biosciences)”?
**A.** Q8-2 (percent CD3+ BTLA+ cells) [1]: 35.8%; Q8-4 (percent CD3- BTLA+ cells) [1]: 28%; Total BTLA (percent of gated cells BTLA-positive) [1]: 63.9%

**Q.** How did the EC50 (read off the curve) [2] turn out when “reference anti-BTLA antibody MIH26 (APC-labeled, BioLegend)” was run?
**A.** Its EC50 (read off the curve) is 2 nM.

**Q.** And the EC50 (read off the curve) [3]?
**A.** The EC50 (read off the curve) was 3 nM.

B1: purified recombinant Proteinase 3 (PR3) (protein)
chain: IVGGHEAQPHSRPYMASLQMRGNPGSHFCGGTLIHPSFVLTAAHCLRDIPQRLVNVVLGAHNVRTQEPTQQHFSVAQVFLNNYDAENKLNDVLLIQLSSPANLSASVATVQLPQQDQPVPHGTQCLAMGWGRVGAHDPPAQVLQELNVTVVTFFCRPHNICTFVPRRKAGICFGDSGGPLICDGIIQGIDSFVIWGCATRLFPDFFTRVALYVDWIRSTLR
**Q.** How did the “proteolytic cleavage after co-incubation up to 60 minutes (gel lanes)” value [4] turn out when B1 was run?
**A.** The value was “soluble BLTA-ECD was cleaved into multiple smaller fragments”.

B2: 10D8 antibody (APE11482.06) (antibody, V domains shown)
VH: QVQLVQSGAEVKKPGASVKVSCKASGYTLTDYTIHWVRQAPGQRLEWMGWIYPGSGNTKYNDEFKVRVTITRDTSASTAYMELSSLRSEDTAVYYCARRNYYAMEYWGQGTTVTVSS
VL: DIQMTQSPSSLSASVGDRVTITCKASQNVFTNVAWFQQKPGKAPKPLIYSASYRYSGVPSRFSGSGSGTDFTLTISSLQPEDFATYYCQQYSTYPYTFGQGTKLEIKR
**Q.** Does B2 bind [5]?
**A.** Result: binds

B3: 6G3 IgG1 anti-BTLA antibody (APE10585.04) (antibody, V domains shown)
VH: QVQLVQSGAEVKKPGSSVKVSCKASGYVFSTSWMNWVRQAPGQGLEWMGRIYPGDADTNYVGKFKGRVTITADKSTTTAYMELSSLRSEDTAVYFCAKSGTFNFGNYRWYFDVWGKGTTVTVSS
VL: AIQLTQSPSSLSASVGDRVTITCRVSENIYSHLAWYQQKPGKAPKLLIYAATNLALGVPSRFSGSGSGTDYTLTISSLQPEDFATYYCQLFWGPPLTFGGGTKVEIKR
notes: Same variable regions as 6G3 IgG4, in IgG1 format; also called APE10585.x; APE10585.04 6G3 IgG1
**Q.** How did the Kd [6] turn out when B3 was run?
**A.** Its Kd is 3.56 nM.

**Q.** And the koff [6]?
**A.** Its koff is 0.000245 s⁻¹.

**Q.** And the kon [6]?
**A.** The kon was 68900 M⁻¹ s⁻¹.

**Q.** And the Kd [7]?
**A.** The Kd was about 5 nM.

**Q.** What about the Kd [8] of the same molecule?
**A.** Its Kd is 10.8 nM.

**Q.** What about the koff [8] of the same molecule?
**A.** Its koff is 0.00295 s⁻¹.

**Q.** And the kon [8]?
**A.** Its kon is 272000 M⁻¹ s⁻¹.

**Q.** And the Kd [9]?
**A.** Its Kd is about 11 nM.
